Measured values taken from PMC6318265, “Structure of BAI1/ELMO2 complex reveals an action mechanism of adhesion GPCRs via ELMO family scaffolds” (Nature Communications, 2019).

Tests used:
[1] = biological target: T1, ELMO2-RAE (sample of the ITC titration) (human, UniProt Q96JJ3 1-520); experiment: ITC; MicroCal iTC200, 25 °C; 50 mM Tris pH 8.0, 100 mM NaCl, 1 mM EDTA, 1 mM DTT; BAI1-EBD (~500 µM) in the syringe, ELMO2-RAE (~40 µM) in the cell; conditions: both partners purified
T1 construct: ELMO2, GenBank AF398886.1, aa 1-520 (RBD-ARR-ELMO tandem); Tag removal is described only for crystallography; also called Trx-His6-ELMO2-RAE; source: E. coli BL21 (DE3), purified (Ni-NTA, SEC)
T1 sequence (looked up): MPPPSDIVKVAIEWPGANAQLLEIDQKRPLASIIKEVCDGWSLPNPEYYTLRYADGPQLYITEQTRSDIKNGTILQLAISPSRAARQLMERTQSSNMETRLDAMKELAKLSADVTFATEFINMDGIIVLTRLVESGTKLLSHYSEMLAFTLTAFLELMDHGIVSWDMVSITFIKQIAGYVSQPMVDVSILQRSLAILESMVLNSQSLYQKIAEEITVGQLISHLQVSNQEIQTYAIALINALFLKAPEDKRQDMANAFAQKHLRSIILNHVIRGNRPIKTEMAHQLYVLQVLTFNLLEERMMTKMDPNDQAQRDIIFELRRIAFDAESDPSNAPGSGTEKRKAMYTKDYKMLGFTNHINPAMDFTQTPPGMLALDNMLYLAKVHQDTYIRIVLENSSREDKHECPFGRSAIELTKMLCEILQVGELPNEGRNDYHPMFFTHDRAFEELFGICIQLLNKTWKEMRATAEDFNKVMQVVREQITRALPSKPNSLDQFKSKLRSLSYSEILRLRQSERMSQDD

[2] = biological target: T2, ELMO2-RAE (tag removed, for crystallography) (human, UniProt Q96JJ3 1-520); experiment: crystal structure; ELMO2-RAE mixed with synthetic BAI1-EBD peptide at 1:2; 0.3 M ammonium fluoride, 18% PEG3,350, 16 °C; 1.7 Å, molecular replacement; conditions: both partners purified
T2 construct: ELMO2, GenBank AF398886.1, aa 1-520 (RBD aa 1-80, ARR aa 81-301, ELMO domain aa 306-513); also called RAE tandem of ELMO2; source: E. coli BL21 (DE3), purified (Ni-NTA, SEC, 3C protease cleavage, SEC)
T2 sequence (looked up): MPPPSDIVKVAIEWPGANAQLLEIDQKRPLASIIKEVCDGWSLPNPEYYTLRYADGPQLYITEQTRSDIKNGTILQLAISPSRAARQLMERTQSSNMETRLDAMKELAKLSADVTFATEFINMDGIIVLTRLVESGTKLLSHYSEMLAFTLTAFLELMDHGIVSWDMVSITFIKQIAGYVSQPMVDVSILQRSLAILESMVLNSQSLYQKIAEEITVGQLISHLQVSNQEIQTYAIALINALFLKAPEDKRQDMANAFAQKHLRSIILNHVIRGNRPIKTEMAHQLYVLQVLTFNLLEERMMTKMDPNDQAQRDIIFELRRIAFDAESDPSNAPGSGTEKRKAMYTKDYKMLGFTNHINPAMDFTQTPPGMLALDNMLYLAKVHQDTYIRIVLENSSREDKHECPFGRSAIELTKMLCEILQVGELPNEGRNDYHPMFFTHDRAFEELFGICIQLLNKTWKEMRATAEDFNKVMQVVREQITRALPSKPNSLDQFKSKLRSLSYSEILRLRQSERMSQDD

Row | Binder | Kd [1] [µM] | stoichiometry N [1] | stoichiometry N [2]
1 | SLERRKSRYAELDFEKIMHTRKRHQDMFQDLNRKLQ (domain or fragment, mouse, UniProt Q3UHD1-1 1467-1502, looked up, the methods speak of 'BAI1 proteins') [BAI1-EBD (sample of the ITC titration)] | ~3.36 | 1 | –
2 | SLERRKSRYAELDFEKIMHTRKRHQDMFQDLNRKLQ (peptide, UniProt Q3UHD1-1 1467-1502, looked up, aa 1471-1495 are defined in the electron density; source: synthetic peptide (ChinaPeptide Co.,Ltd.)) [synthetic BAI1-EBD peptide] | – | – | 1
